{
  "source": "patent US20220249561A1",
  "about": "(SHINSHU UNIVERSITY, published 2022)",
  "binders": {"B1": {"name": "Ligand 001P (ligand)", "chain": "DGHHHHHHGSLQDSEVNQEAKPEVKPEVKPETHINLKVSDGSSEIFFKIKKTTPLRRLMEAFAKRQGKEMDSLTFLYDGIEIQADQTPEDLDMEDNDIIEAHREQIGGLEVLFQGPAAGAGRTPSGSRSAEIFPRDSNLKDKFIKHFTGPVTFSPECSKHFHRLYYNTRECSTPAYYKRCARLLTRLAVSPLCSQT"}},
  "key": {"ALK 001P": {"biological_target": "T1, ALK 001P", "T1 construct": "ALK (1-19) is described only as a region comprising a secretory signal, and no cleavage site is stated; Expressed in Expi293 cells and captured on a Protein A chip through its Fc", "T1 sequence (chain, as listed by the source limits assumed)": "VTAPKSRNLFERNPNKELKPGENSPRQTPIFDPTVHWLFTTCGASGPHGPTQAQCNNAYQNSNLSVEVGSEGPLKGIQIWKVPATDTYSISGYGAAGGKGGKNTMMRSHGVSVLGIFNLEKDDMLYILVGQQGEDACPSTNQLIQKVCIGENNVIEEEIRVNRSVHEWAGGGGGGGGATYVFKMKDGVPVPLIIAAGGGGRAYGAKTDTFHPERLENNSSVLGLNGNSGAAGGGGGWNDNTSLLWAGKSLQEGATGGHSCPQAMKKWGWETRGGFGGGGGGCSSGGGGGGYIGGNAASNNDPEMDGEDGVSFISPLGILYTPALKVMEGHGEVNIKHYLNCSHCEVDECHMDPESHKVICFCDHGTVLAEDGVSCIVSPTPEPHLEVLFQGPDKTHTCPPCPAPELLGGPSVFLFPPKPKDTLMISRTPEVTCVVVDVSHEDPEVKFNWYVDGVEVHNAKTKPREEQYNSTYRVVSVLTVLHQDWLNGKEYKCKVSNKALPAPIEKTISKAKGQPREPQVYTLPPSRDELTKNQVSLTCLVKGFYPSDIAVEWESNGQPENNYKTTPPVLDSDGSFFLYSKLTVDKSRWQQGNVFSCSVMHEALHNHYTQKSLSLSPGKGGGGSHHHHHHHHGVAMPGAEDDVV", "assay": "SPR, Biacore 8K; receptor-Fc captured on Protein A chip, ligand as analyte", "method": "(§1) Whether or not ALK 001P and LTK 001P obtained in Example 5 had bound to Ligand 001P and Ligand 002P was examined using Biacore 8K instrument (GE Healthcare Japan) by the surface plasmon resonance (SPR) technique.\n(§2) ALK 001P and LTK 001P were dissociated (i.e., regenerated) from Protein A coating the sensor chip surface (i.e., regeneration) by injecting 10 mM Glycine-HCl (pH 1.6) at a flow rate of 30 μl/min for 30 seconds. The bond dissociation curve modified by subtracting the baseline value was prepared using Biacore8K Evaluation Software (GE Healthcare Japan)."}, "LTK 001P": {"biological_target": "T2, LTK 001P", "T2 construct": "Expressed in Expi293 cells and captured on a Protein A chip through its Fc", "T2 sequence (chain, as listed by the source limits assumed)": "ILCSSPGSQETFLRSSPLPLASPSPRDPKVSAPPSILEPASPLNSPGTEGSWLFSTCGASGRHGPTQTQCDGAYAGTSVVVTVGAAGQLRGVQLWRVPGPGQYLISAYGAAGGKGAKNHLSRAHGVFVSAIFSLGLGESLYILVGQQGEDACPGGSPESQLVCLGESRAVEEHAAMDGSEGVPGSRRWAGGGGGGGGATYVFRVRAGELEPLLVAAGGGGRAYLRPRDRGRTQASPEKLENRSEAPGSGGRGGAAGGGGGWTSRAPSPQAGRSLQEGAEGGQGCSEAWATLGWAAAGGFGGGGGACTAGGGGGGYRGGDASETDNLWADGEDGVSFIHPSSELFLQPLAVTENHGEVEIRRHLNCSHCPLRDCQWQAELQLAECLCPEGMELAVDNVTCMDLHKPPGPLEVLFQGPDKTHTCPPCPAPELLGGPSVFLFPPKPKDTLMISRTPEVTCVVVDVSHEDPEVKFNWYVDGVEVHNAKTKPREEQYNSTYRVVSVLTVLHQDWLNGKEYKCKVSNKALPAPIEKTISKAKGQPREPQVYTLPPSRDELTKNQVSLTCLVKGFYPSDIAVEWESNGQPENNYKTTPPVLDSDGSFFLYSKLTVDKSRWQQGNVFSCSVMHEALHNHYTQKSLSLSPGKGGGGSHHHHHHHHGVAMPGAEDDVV", "assay": "SPR, Biacore 8K; receptor-Fc captured on Protein A chip, ligand as analyte", "method": "as §1, §2"}},
  "data": [
    {"binder": "B1", "values": [
      {"measurement": "binding result", "setting": "ALK 001P", "result": "binds"},
      {"measurement": "binding result", "setting": "LTK 001P", "result": "binds"}
    ]}
  ]
}
